In assay [1] the target is T1, C3d (UniProt P01024 1002-1303, limits assumed).
T1 construct: domain: C3d
Nature of the assay: binding screen of Example 5; method and unit not stated.

Assay [2] deals with T2, Factor Bb (UniProt P00751 260-764).
T2 construct: domain: Factor Bb
The description is as above.

The next assay has as its target C3b (human, UniProt P01024 23-667; P01024 749-1663). The description is as above.
Assay [3] has as its target T3, C3a (human, UniProt P01024 672-748). Described as above.
The target of assay [4] is T4, human complement component C3 (human, UniProt P01024 23-667; P01024 672-1663).
T4 construct: also called human C3
T4 sequence (P01024 23-667, chain 1 of 2): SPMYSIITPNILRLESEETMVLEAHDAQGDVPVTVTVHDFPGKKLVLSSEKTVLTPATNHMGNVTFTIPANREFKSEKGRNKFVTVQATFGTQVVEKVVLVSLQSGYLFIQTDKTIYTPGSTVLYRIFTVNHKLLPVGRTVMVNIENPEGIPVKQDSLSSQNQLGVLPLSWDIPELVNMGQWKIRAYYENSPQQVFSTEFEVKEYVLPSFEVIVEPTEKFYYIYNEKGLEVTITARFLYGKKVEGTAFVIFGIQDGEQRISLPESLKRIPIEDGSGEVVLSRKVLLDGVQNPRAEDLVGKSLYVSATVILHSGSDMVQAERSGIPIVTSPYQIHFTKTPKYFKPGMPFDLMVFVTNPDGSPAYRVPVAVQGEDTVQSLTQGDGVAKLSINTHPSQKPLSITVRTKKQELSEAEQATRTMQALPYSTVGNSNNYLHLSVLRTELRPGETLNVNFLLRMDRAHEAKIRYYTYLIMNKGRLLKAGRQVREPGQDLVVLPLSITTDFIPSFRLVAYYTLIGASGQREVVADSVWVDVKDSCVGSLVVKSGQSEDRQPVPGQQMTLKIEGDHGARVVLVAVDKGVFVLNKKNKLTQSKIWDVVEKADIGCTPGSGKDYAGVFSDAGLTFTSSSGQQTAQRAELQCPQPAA
T4 sequence (P01024 672-1663, chain 2 of 2): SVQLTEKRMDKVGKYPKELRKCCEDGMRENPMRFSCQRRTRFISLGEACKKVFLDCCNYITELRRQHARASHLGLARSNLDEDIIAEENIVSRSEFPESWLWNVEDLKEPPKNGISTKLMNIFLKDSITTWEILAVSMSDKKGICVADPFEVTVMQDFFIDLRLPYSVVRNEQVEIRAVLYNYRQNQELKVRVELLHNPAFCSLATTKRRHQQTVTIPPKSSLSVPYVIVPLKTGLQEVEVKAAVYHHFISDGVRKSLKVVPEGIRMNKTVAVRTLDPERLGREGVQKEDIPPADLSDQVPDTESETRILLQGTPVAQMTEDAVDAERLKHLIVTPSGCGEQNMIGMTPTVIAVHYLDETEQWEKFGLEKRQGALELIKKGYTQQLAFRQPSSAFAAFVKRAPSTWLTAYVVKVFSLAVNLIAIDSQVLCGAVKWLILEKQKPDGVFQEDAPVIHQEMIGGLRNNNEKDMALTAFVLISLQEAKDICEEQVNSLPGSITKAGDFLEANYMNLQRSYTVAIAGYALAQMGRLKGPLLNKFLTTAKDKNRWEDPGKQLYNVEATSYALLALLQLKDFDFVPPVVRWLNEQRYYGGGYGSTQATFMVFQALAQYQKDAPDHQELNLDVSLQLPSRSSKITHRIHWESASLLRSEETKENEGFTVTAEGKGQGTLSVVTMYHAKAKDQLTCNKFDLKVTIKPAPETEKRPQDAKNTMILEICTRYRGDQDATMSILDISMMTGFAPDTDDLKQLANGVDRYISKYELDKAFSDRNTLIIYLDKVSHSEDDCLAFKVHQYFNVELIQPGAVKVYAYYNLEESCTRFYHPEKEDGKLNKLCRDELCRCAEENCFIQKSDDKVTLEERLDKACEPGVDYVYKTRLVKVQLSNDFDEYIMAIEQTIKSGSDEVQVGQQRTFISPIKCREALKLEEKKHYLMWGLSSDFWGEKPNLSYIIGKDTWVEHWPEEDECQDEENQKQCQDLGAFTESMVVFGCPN
The description is as above.

For assay [5], the target named is T4, human complement component C3. Nature of the assay: SPR (Biacore), antibody captured by anti-Fc, C3 injected 0.62-40 nM, 37 C. As for the experimental part:
(§1) The binding affinities of exemplary anti-C3 antibodies to human C3 and cyno C3 were measured using a Biacore system (GE Healthcare LifeSciences). Briefly, anti-Fc antibody (Sigma-Aldrich) was immobilized on all four flow cells of a CM5 chip using amine coupling reagents (GE Healthcare LifeSciences). Antibodies were captured on flow cells 2, 3, and 4 using flow cell 1 as a reference. Concentrations ranging from 0.62-40 nM of human C3 or cyno C3 were injected at a flow rate of 50 μL/min at 37° C. Kinetic data were collected over time and fit using the simultaneous global fit equation to yield affinity constants (KD values) for each antibody.
Background: SPR reads the build-up and loss of mass on a sensor chip optically.

Assay [6] has as its target T5, cynomolgus monkey complement component C3 (cynomolgus monkey, UniProt P01024 24-1663 (human entry)).
T5 construct: In the hemolysis assays cyno serum was the source of C3; also called cyno C3
The description is as above. The method, then:
as §1

Assay [7] deals with T4, human complement component C3. As to the kind of experiment: cell-based or functional assay.
Assay [8] concerns the target T5, cynomolgus monkey complement component …. As to the kind of experiment: cell-based or functional assay.
Assay [9] concerns the target T1, C3d. As to the kind of experiment: binding screen of Example 5, relative to control mIgG2.
The target of assay [10] is T2, Factor Bb. The assay is described as above.
Assay [11] addresses T3, C3a. The assay is described as above.
Assay [12] concerns the target T4, human complement component C3. As to the kind of experiment: SPR (Biacore), 37 C. As for the experimental part:
as §1

Assay [13] has as its target T5, cynomolgus monkey complement component …. Nature of the assay: SPR (Biacore), 37 C. As for the experimental part:
as §1

The target in assay [14] is T4, human complement component C3. As to the kind of experiment: SPR (Biacore).
Assay [15] shares this target. Nature of the assay: cell-based or functional assay. The source holds these as a separate data set.
For assay [16] the target is unchanged. Nature of the assay: SPR (Biacore). As for the experimental part:
as §1
The source holds these as a separate data set.

Assay [17] shares this target. Nature of the assay: SPR (Biacore); Intact antibody.
Assay [18] shares this target. As to the kind of experiment: cell-based or functional assay. The source holds these as a separate data set.
For assay [19], the target named is T5, cynomolgus monkey complement component …. Nature of the assay: cell-based or functional assay. The source holds these as a separate data set.
Assay [20] deals with T4, human complement component C3. Nature of the assay: SPR (Biacore), antibody captured by anti-Fc, C3 injected, 25 C; 25° C. The method, then:
as §1
(§2) A Biacore system was used to assess the binding affinities of the different molecules to human C3. […] Human C3 (concentration range 12-100 nM) was injected at a flow rate of 50 μL/min.

The target is the same in assay [21]. Nature of the assay: cell-based or functional assay. This is another data set of the same source.
For assay [22] the target is unchanged. As to the kind of experiment: cell-based or functional assay. This is another data set of the same source.
Assay [23] has the same target. As to the kind of experiment: SPR (Biacore), antibody captured by anti-Fc, C3 injected, 37 C. As for the experimental part:
as §1, §2

Some results are limits rather than exact numbers.

T1 sequence (P01024 1002-1303 limits assumed): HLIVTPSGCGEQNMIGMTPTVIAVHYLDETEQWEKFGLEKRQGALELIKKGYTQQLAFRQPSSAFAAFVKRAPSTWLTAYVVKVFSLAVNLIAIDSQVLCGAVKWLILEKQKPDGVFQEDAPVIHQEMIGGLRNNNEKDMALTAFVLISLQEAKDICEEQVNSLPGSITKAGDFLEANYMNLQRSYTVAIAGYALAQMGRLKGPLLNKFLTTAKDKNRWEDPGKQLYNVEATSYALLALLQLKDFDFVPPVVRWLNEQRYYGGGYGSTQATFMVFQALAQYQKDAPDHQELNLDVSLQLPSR
T3 sequence (P01024 672-748 limits assumed): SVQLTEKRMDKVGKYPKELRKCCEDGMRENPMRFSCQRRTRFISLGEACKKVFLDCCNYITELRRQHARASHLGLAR
T2 sequence (P00751 260-764 limits assumed): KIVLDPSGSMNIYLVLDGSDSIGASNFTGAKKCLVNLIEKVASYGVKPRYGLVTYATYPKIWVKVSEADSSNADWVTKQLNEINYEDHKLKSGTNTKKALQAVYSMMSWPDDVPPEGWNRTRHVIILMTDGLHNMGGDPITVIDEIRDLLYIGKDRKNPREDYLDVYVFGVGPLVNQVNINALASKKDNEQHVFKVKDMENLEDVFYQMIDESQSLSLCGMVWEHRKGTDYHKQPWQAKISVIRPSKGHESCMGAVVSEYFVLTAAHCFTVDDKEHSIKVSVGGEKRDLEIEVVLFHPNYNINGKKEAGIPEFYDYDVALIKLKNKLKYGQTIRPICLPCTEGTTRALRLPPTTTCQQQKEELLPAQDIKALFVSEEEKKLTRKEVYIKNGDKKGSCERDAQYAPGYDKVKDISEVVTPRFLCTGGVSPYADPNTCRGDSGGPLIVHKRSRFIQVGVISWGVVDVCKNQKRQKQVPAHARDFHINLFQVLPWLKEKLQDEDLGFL
T5 sequence (P01024 other isoform, or with tags, fused parts or gaps): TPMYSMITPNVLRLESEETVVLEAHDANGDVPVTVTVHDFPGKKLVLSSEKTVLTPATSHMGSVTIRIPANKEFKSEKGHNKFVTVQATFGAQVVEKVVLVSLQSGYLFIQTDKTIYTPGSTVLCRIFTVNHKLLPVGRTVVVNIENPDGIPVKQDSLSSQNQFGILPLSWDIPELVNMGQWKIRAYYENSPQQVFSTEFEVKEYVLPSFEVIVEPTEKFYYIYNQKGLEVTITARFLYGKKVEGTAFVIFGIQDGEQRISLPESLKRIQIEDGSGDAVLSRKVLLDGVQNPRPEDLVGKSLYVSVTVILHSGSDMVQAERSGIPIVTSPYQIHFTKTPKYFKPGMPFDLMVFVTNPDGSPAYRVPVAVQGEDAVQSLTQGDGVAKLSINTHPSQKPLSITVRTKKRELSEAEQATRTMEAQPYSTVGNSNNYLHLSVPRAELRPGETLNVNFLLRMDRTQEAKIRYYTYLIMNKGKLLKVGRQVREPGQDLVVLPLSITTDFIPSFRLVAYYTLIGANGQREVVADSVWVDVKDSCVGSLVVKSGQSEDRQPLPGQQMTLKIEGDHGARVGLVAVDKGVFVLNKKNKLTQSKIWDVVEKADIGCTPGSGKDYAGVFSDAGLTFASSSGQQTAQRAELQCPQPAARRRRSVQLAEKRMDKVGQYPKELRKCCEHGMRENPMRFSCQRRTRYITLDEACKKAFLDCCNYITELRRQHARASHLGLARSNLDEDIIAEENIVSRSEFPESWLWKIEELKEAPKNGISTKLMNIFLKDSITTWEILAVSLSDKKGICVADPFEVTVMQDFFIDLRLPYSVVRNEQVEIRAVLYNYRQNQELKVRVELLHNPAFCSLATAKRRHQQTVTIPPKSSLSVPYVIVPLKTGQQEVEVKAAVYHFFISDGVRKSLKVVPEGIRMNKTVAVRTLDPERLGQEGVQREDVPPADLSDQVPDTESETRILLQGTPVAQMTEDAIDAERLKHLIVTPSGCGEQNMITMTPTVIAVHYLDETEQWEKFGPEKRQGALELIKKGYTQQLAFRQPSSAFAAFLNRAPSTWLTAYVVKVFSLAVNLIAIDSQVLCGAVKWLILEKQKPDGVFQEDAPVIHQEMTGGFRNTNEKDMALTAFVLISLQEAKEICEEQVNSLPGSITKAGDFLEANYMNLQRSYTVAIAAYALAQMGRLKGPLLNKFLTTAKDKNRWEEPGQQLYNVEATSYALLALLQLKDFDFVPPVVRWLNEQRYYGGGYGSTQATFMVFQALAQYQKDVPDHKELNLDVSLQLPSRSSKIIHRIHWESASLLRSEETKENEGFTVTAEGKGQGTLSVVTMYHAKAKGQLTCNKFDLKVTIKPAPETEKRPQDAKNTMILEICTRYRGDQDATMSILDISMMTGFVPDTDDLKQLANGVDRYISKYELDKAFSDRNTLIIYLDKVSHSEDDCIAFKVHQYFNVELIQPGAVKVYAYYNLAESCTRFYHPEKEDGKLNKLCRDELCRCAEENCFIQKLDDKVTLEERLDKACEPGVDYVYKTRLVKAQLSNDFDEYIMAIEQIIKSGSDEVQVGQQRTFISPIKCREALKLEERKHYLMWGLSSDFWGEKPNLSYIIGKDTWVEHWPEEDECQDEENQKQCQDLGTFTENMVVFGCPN

B1: antibody 3D8 (antibody, V domains shown)
VH: EIQLQQSGAELVKPGASVKISCKASGYSFTGYNMNWVKQSHGKSLEWIGNINPYYGSTNYNQKFKGKATLTVDKSSTTAYMQLDSLTSEDSAVYYCARGYYGGNYPFAYWGQGTLVTVSA
VL: DIQMTQSPASLSASVGETVTITCRASENIYSYLAWYQQKQGKSPQLLVYNAKTLAEGVPSRFSGSGSGTQFSLKINSLQPEDFGSYYCQHYYGTPYTFGGGSKVEIK
notes: Mouse hybridoma antibody raised against human C3
In general, Kd refers to the free concentration of one partner at which half of the binding sites on the other are occupied at equilibrium, for simple one-to-one binding. Turning to B1, the “binding relative to negative control mIgG2” value in the assay with C3d [1] is 0.01; in the assay with Factor Bb [2] it was -0.01; with C3b, 0.38; in the assay with C3a [3], -0.01; in [4] it was 0.47. The Kd is 1.9 nM in assay [5] and 1.4 nM in assay [6]. For the same molecule, the “Hemolytic Assay IC50, Human AP” value in assay [7] was 4.2 nM. The “Hemolytic Assay IC50, Human CP” value in [7] was determined as 3.6 nM. For the same molecule, the “Hemolytic Assay IC50, Cyno AP” value in [8] turned out to be 5.5 nM.

B2: antibody 38G10 (antibody, V domains shown)
VH: EVQLQQSGPELVKPGDSVKMSCKASGYTFTDFYMDWVKQSHGKSLEWIGYIYPHNGGTTYNQNFTGKATLTVDKSSNTAYMELHSLTSEDSAVYYCARRGGFDFDYWGQGTTLTVSS
VL: NIVMTQSPKSMSLSVGERVTLRCKASENVDTYVSWYQQKPEQSPKLLIYGASNRYTGVPDRFTGSGSATEFTLTISSVQAEDLVGYHCGQSHSYPLTFGAGTKLELK
notes: Mouse hybridoma antibody; Parent of Hz38G10; also called parental 38G10 antibody
Turning to B2, the “binding relative to negative control mIgG2” value in the assay with C3d [1] was 0; in the assay with Factor Bb [2] it was 0.01; with C3a [3], 0.02; in assay [4] it was 0.53. In addition, the binding result in the assay with C3d [9], in the assay with Factor Bb [10] and in the assay with C3a [11] was “no binding” in each case. Further, the Kd in assay [5] was 0.19 nM; in assay [6], 0.16 nM; in assay [12] it was about 0.1 nM; in assay [13] it was about 0.1 nM. The “Hemolytic Assay IC50, Human AP” value in assay [7] is 1.9 nM. Also, in assay [7], the “Hemolytic Assay IC50, Human CP” value is 1.7 nM. In addition, the “Hemolytic Assay IC50, Cyno AP” value in assay [8] turned out to be 3.5 nM.

B3: antibody 15C12 (antibody, V domains shown)
VH: EIQLQQSGAELEKPGASVKISCKASGYSFTGYNMHWVKQSHGKSLEWIGNINPYYGTTNSNQKFEDKATLTVDKSSSTAYMQLNSLTSEDSAVYYCARGIYYYGTGYPYFDFWGQGTTLTVSS
VL: DIQMTQTTSSLSASLGDRVTISCRASQDINNYLNWYLQKPDGTVKLLIYYTSRLHSGVPSRFSGSGSGTDYSLTISNLEQEDLATYFCQQGITLPWTFGGGTKLEIK
notes: Mouse hybridoma antibody
On to B3, for which binding in [5] was characterised by a dissociation constant (Kd) of 0.13 nM. This molecule yielded a dissociation constant (Kd) in assay [6] of 0.13 nM. For the same molecule, in [7], the “Hemolytic Assay IC50, Human AP” value is 3.7 nM and the “Hemolytic Assay IC50, Human CP” value is 3.8 nM. Further, the “Hemolytic Assay IC50, Cyno AP” value in [8] is 8.8 nM.

B4: Hz38G10 dsscFv (scFv)
scFv: MDIQMTQSPSSLSASVGDRVTITCKASENVDTYVSWYQQKPGKAPKLLIYGASNRYTGVPSRFSGSGSGTDFTFTISSLQPEDIATYHCGQSHSYPLTFGCGTKLEIKGGGGSGGGGSGGGGSQVQLVQSGAEVKKPGASVKVSCKASGYTFTDFYMDWVRQAPGQCLEWMGYIYPHNGGTTYNQQFTGRVTITVDKSASTAYMELSSLRSEDTAVYYCARRGGFDFDYWGQGTLVTVSS
notes: also called Hz38G10 VL-linker-VH dsscFv
B4: the Kd in [14] worked out at 0.035 nM. Besides, in assay [15], the “AP human C3 IC50 (hemolysis)” value worked out at 19.5 nM and the “CP human C3 IC50 (hemolysis)” value is 15.3 nM.

B5: antibody Hz38G10 (antibody, human IgG1, kappa, V domains shown)
VH: QVQLVQSGAEVKKPGASVKVSCKASGYTFTDFYMDWVRQAPGQRLEWMGYIYPHNGGTTYNQQFTGRVTITVDKSASTAYMELSSLRSEDTAVYYCARRGGFDFDYWGQGTLVTVSS
VL: DIQMTQSPSSLSASVGDRVTITCKASENVDTYVSWYQQKPGKAPKLLIYGASNRYTGVPSRFSGSGSGTDFTFTISSLQPEDIATYHCGQSHSYPLTFGQGTKLEIKR
notes: also called humanized 38G10; Hz38G10 intact antibody
The molecule B5 registered an equilibrium dissociation constant (Kd) in assay [16] of 0.3 nM. Further, binding in assay [13] was put at a Kd of 1.8 nM. For the same molecule, in assay [15], the “AP human C3 IC50 (hemolysis)” value stood at 5.9 nM and the “CP human C3 IC50 (hemolysis)” value is 4 nM. The molecule also showed a Kd in assay [17] of 0.027 nM. In assay [18], the “Alternative Pathway IC50 (hemolysis), Human C3” value stood at 3.9 nM and the “Classical Pathway IC50 (hemolysis), Human C3” value worked out at 5.2 nM. Besides, in [19], the “Alternative Pathway IC50 (hemolysis), Cyno C3” value was 4.8 nM and the “Classical Pathway IC50 (hemolysis), Cyno C3” value worked out at 0.7 nM. The same molecule yielded an equilibrium dissociation constant (Kd) in [20] of under 0.1 nM. Besides, the “fold more effective than COMP or COMP-PEG in inhibiting the alternative pathway” value in assay [21] is about 10 fold. For the same molecule, in assay [22], the “Alternative Pathway IC50 (hemolysis; run with COMP)” value came to 2.5 nM, the “Alternative Pathway IC50 (hemolysis; run with COMP-PEG)” value is 4 nM, the “Classical Pathway IC50 (hemolysis; run with COMP)” value came out at 2 nM and the “Classical Pathway IC50 (hemolysis; run with COMP-PEG)” value came to 4.1 nM. This molecule also registered a Kd in assay [23] of 0.28 nM.

Values taken from patent US20190322730A1 (NGM BIOPHARMACEUTICALS, published 2019).
